For 6 sequences, Kd results are on record in the Immune Epitope Database (IEDB).

A value given as a limit tells only on which side of the number the result lay.

The term Kd denotes the free concentration of one partner at which half of the binding sites on the other are occupied at equilibrium, for simple one-to-one binding. The low end stands for higher affinity, the high end for lower affinity.

Experiment [1] has as its target HLA-C*03:03. Description: IEDB peptide-MHC binding, purified MHC/direct/fluorescence; filed as Kd, often an IC50 or EC50 that approximates it; ≥ and ≤ were set here for values at or beyond the usual limits of such assays.
For experiment [2], the target named is HLA-C*08:02. The description is as above. To be noted: source organism: Pan troglodytes.
Experiment [3] has as its target HLA-B*15:42. Description: IEDB peptide-MHC binding, purified MHC/competitive/fluorescence; filed as Kd, often an IC50 or EC50 that approximates it; ≥ and ≤ were set here for values at or beyond the usual limits of such assays.
Experiment [4] deals with HLA-B*45:06. The description is as above.
Experiment [5] addresses HLA-B*83:01. The description is as above.
Experiment [6] addresses HLA-C*14:02. The experiment is described as above.
In experiment [7] the target is HLA-A*02:01. Description: IEDB peptide-MHC binding, purified MHC/direct/fluorescence; filed as Kd, often an IC50 or EC50 that approximates it; ≥ and ≤ were set here for values at or beyond the usual limits of such assays.
For experiment [8], the target named is HLA-A*32:07. Description: IEDB peptide-MHC binding, purified MHC/competitive/fluorescence; filed as Kd, often an IC50 or EC50 that approximates it; ≥ and ≤ were set here for values at or beyond the usual limits of such assays. To be noted: source organism: Mammarenavirus juninense.
The target of experiment [9] is HLA-A*32:15. The experiment is described as above.
For experiment [10], the target named is HLA-B*27:20. Described as above. To be noted: source organism: Mammarenavirus juninense.
Experiment [11] has as its target HLA-A*01:01. Kind of experiment: IEDB peptide-MHC binding, purified MHC/direct/fluorescence; filed as Kd, often an IC50 or EC50 that approximates it; ≥ and ≤ were set here for values at or beyond the usual limits of such assays. To be noted: source organism: Mycobacterium tuberculosis.
For experiment [12], the target named is HLA-A*03:01. Described as above. To be noted: source organism: Mycobacterium tuberculosis.
In experiment [13] the target is HLA-A*11:01. Described as above. To be noted: source organism: Mycobacterium tuberculosis.
Experiment [14] has as its target HLA-A*31:01. The experiment is described as above. To be noted: source organism: Mycobacterium tuberculosis.
Experiment [15] addresses HLA-A*69:01. The experiment is described as above. To be noted: source organism: Mycobacterium tuberculosis.
The target in experiment [16] is HLA-B*08:01. Described as above.
Experiment [17] deals with HLA-B*08:02. The description is as above.
For experiment [18], the target named is HLA-B*15:17. The description is as above. To be noted: source organism: Mycobacterium tuberculosis.
The target of experiment [19] is HLA-B*18:01. The description is as above. To be noted: source organism: Mycobacterium tuberculosis.
Experiment [20] addresses HLA-B*27:05. Described as above. To be noted: source organism: Mycobacterium tuberculosis.
Experiment [21] deals with HLA-B*38:01. The experiment is described as above.
Experiment [22] addresses HLA-B*40:01. The experiment is described as above. To be noted: source organism: Mycobacterium tuberculosis.
For experiment [23], the target named is HLA-B*46:01. The description is as above. To be noted: source organism: Mycobacterium tuberculosis.
Experiment [24] concerns the target HLA-B*48:01. The experiment is described as above. To be noted: source organism: Mycobacterium tuberculosis.
For experiment [25], the target named is HLA-B*51:01. The description is as above. To be noted: source organism: Mycobacterium tuberculosis.
Experiment [26] addresses HLA-B*57:01. The experiment is described as above. To be noted: source organism: Mycobacterium tuberculosis.
Experiment [27] concerns the target HLA-B*58:01. Described as above. To be noted: source organism: Mycobacterium tuberculosis.
For experiment [28], the target named is HLA-B*15:01. Description: IEDB peptide-MHC binding, purified MHC/competitive/fluorescence; filed as Kd, often an IC50 or EC50 that approximates it; ≥ and ≤ were set here for values at or beyond the usual limits of such assays. To be noted: source organism: Mycobacterium tuberculosis variant bovis BCG str. Pasteur 1173P2.
In experiment [29] the target is HLA-A*26:01. Description: IEDB peptide-MHC binding, purified MHC/direct/fluorescence; filed as Kd, often an IC50 or EC50 that approximates it; ≥ and ≤ were set here for values at or beyond the usual limits of such assays.
For experiment [30], the target named is HLA-C*06:02. The experiment is described as above.
The target in experiment [31] is HLA-C*14:02. The description is as above. To be noted: source organism: Campylobacter jejuni.
Experiment [32] deals with HLA-C*15:02. The experiment is described as above.
Experiment [33] concerns the target HLA-C*12:03. The description is as above. To be noted: source organism: Brucella abortus S19.
Experiment [34] concerns the target HLA-B*15:02. Kind of experiment: IEDB peptide-MHC binding, purified MHC/competitive/fluorescence; filed as Kd, often an IC50 or EC50 that approximates it; ≥ and ≤ were set here for values at or beyond the usual limits of such assays. To be noted: source organism: Brucella abortus S19.
Experiment [35] concerns the target HLA-B*46:01. Described as above. To be noted: source organism: Brucella abortus S19.
Experiment [36] addresses HLA-B*15:01. Description: IEDB peptide-MHC binding, purified MHC/direct/fluorescence; filed as Kd, often an IC50 or EC50 that approximates it; ≥ and ≤ were set here for values at or beyond the usual limits of such assays. To be noted: source organism: Mycobacterium tuberculosis.
Setting [37] is: source organism: Pan troglodytes.
[38] abbreviates: source organism: Mammarenavirus juninense.
The mark [39] stands for this setting: source organism: Mycobacterium tuberculosis.
Setting [40] is: source organism: Mycobacterium tuberculosis str. Haarlem.
The mark [41] stands for this setting: source organism: Mycobacterium tuberculosis variant bovis BCG str. Pasteur 1173P2.
[42] abbreviates: source organism: Campylobacter jejuni.
The mark [43] stands for this setting: source organism: Brucella abortus S19.
Setting [44] is: source organism: Mycobacterium tuberculosis F11.

Turning to VMPPRTLLL, the Kd in experiment [1] (setting [37]) is ≥ 20 µM; in experiment [2], ≥ 20 µM; in [3] (setting [37]), ≥ 5 µM; in [4] (setting [37]), ≥ 5 µM; in experiment [5] (setting [37]), ≥ 5 µM; in [6] (setting [37]), 0.0768 µM.
As for KLMDVVYSI, the Kd in [7] (setting [38]) is 0.0009 µM; in [1] (setting [38]), ≥ 20 µM; in experiment [8] it was 0.0021 µM; in experiment [9] (setting [38]), 0.0556 µM; in [3] (setting [38]), ≥ 5 µM; in experiment [10], 0.0179 µM. Further, the Kd in experiment [4] (setting [38]) is ≥ 5 µM.
RPRVAQLTF: the Kd is 4.16 µM in [11]; ≥ 20 µM in [7] (setting [39]); ≥ 20 µM in experiment [12]; ≥ 20 µM in experiment [13]; ≥ 20 µM in experiment [14]; ≥ 20 µM in experiment [15]. Moreover, the Kd in experiment [16] (setting [40]) is 0.267 µM; in experiment [17] (setting [40]), 3.86 µM; in experiment [18] it was 0.169 µM; in experiment [19] it was 0.104 µM; in [20] it was ≥ 20 µM; in experiment [21] (setting [40]), ≥ 20 µM. In addition, the dissociation constant Kd in experiment [22] is ≥ 20 µM; in [23], ≥ 20 µM; in [24], ≥ 20 µM; in experiment [25] it was ≥ 20 µM; in experiment [26], 0.864 µM; in experiment [27], ≥ 20 µM. For the same sequence, the Kd was ≥ 20 µM in experiment [28], ≥ 5 µM in [3] (setting [41]), ≥ 5 µM in experiment [4] (setting [41]) and 2.01 µM in experiment [5] (setting [41]).
As to YTKKYLLSF, the Kd in [29] (source organism: Campylobacter jejuni subsp. jejuni 81116) is 0.002 µM; in experiment [30] (setting [42]) it was ≥ 20 µM; in [31], 2.05 µM; in experiment [32] (setting [42]), 5 µM; in experiment [9] (setting [42]), 0.235 µM; in experiment [3] (setting [42]) it was ≥ 5 µM. The dissociation constant (Kd) in experiment [4] (setting [42]) and in experiment [5] (setting [42]) was ≥ 5 µM throughout.
As for YMRERLSDF, the Kd is 0.112 µM in [30] (setting [43]); 0.094 µM in experiment [33]; ≥ 20 µM in experiment [32] (setting [43]); 0.235 µM in experiment [34]; ≥ 5 µM in experiment [3] (setting [43]); ≥ 5 µM in experiment [4] (setting [43]). The Kd in experiment [35] is 0.0306 µM; in experiment [5] (setting [43]), ≥ 5 µM; in experiment [6] (setting [43]), 0.018 µM.
In the case of KPKLARGEL, the dissociation constant (Kd) in experiment [11], in experiment [7] (setting [39]), in experiment [12], in [13], in experiment [29] (setting [44]) and in experiment [14] was ≥ 20 µM in each case. The dissociation constant Kd in [15] was ≥ 20 µM; in experiment [16] (setting [44]) it was 0.19 µM; in [17] (setting [44]) it was ≥ 5 µM; in [36], ≥ 20 µM; in experiment [18], ≥ 20 µM; in experiment [19], 2.57 µM. The equilibrium dissociation constant (Kd) in experiment [20] was ≥ 20 µM; in experiment [21] (setting [44]), ≥ 20 µM; in [22], 1.16 µM; in [23] it was ≥ 20 µM; in experiment [24] it was ≥ 20 µM; in experiment [25], ≥ 20 µM. The Kd in experiment [26] and in [27] was ≥ 20 µM each time.
